Results taken from patent US20150232852.

How the values were obtained:
[1] = molecular target: D-glucagon (all D-amino acids), biotinylated (Homo sapiens) (UniProt P01275); assay: pulldown; settings: D-DNA; 37 C, 1 mM Mg, 1 mM Ca, pH 7.4; direct pull-down
[2] = molecular target: glucagon, L-form, biotinylated (glucagon1-29-AEEAc-AEEAc-biotin) (Homo sapiens) (UniProt P01275); assay: pulldown; settings: L-DNA; 37 C, 1 mM Mg, 1 mM Ca, pH 7.4; direct pull-down, spiegelmer
glucagon, L-form, biotinylated (glucagon1-29-AEEAc-AEEAc-biotin) (Homo sapiens), sequence (P01275 53-81): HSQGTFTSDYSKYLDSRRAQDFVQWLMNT

For “GCAGTGGGGAAATGGGAGGGCTAGGTGGAAGGAATCTGAGCTACTGC [257-E1-001 (aptamer)]”, the Kd [1] was 137 nM.

“GCAGTGGGGAAATGGGAGGGCTAGGTGGAAGGAATCTGAGCTACTGC [257-E1-001 (spiegelmer)]” was tested, and the Kd [2] was 179 nM.

In the case of “CGACTCGAGAGGAAAGGTTGGTAAAGGTTCGGTTGGATTCACTCGAGTCG [259-H6-001 (aptamer)]”, the Kd [1] is reported as 33 nM.
